According to patent US20190048062A1 (BRACCO SUISSE, published 2019):

Experiments:
Assay in all cases: flow chamber, microvesicles on selectin-Fc coating
[1] = target: T1, mouse Fc P-Selectin (catalog number 737-PS, R&D Systems) (mouse, UniProt Q01102 42-709)
T1 construct: Bought; coated in the flow chamber at 4 µg/mL; also called Mouse P selectin; mouse P-selectin; Fc part of the bought chimera not given
T1 sequence (looked up): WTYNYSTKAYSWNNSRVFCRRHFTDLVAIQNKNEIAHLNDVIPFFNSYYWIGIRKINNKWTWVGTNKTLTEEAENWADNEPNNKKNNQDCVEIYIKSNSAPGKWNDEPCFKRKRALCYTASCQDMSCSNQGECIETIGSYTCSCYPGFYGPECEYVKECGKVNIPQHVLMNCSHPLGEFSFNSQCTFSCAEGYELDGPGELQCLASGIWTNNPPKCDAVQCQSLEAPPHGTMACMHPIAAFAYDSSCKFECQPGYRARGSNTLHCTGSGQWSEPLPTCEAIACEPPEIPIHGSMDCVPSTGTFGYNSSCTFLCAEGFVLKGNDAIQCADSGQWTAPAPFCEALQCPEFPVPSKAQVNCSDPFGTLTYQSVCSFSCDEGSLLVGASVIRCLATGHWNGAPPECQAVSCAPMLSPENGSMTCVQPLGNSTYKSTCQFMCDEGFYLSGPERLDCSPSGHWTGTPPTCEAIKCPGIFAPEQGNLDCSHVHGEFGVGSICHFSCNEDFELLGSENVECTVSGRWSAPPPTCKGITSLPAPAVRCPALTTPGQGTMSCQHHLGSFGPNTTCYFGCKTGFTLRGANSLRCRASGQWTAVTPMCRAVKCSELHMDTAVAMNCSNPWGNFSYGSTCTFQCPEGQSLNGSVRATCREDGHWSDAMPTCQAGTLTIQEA
Method: (§1) To test the effective binding, targeted microvesicles prepared as described in WO2012/020030 (Example 6) and those prepared according to the present invention (example 8) were injected in a flow chamber set up comprising a coating of mouse Fc P-Selectin (catalog number 737-PS, R&D Systems, Minneapolis, Minn., USA) or human Fc P and E selectins (R&D catalog numbers 137-PS 50 and 724 ES 100) at 4 μg/mL. Microvesicles (at equivalent number of 80×10⁶/400 μL TBS++) were injected through the flow chamber (FCS2, Bioptech, USA) in a bolus fashion and their adhesion onto the mouse P-selectin (or human P- or E-selectin) coating layer assessed over a period of 10 min at a flow rate of 1.0 mL/min (shear rate of 714 s⁻¹) in the presence of 50% (v:v) human plasma (Stehelin & Cie A G) in TBS. A quantitative analysis of microvesicles accumulation was performed by counting the number of microvesicles adhering in the observed area at 2 min intervals over the total 10 min infusion, using the image processing program Analysis FIVE (SIS, Germany). After 10 min, five pictures were taken randomly and the number of bound microvesicles was measured and expressed as the number of bound bubbles (NBB) at 10 min. Each observed area was 183×137 μm, as measured with the aid of a stage micrometer. Measurement was performed between the middle and the exit of the chamber.
(§2) Similarly, suspensions of targeted microvesicles prepared according to example 8 (Variant 1A as targeting ligand) was injected in a flow chamber as described above, and their binding activity determined according to the above procedure.

[2] = target: T2, human Fc P selectin (R&D catalog number 137-PS 50) (human, UniProt P16109 42-771)
T2 construct: Bought; coated in the flow chamber at 4 µg/mL; also called Human P selectin; human P-selectin; Fc part of the bought chimera not given
T2 sequence (looked up): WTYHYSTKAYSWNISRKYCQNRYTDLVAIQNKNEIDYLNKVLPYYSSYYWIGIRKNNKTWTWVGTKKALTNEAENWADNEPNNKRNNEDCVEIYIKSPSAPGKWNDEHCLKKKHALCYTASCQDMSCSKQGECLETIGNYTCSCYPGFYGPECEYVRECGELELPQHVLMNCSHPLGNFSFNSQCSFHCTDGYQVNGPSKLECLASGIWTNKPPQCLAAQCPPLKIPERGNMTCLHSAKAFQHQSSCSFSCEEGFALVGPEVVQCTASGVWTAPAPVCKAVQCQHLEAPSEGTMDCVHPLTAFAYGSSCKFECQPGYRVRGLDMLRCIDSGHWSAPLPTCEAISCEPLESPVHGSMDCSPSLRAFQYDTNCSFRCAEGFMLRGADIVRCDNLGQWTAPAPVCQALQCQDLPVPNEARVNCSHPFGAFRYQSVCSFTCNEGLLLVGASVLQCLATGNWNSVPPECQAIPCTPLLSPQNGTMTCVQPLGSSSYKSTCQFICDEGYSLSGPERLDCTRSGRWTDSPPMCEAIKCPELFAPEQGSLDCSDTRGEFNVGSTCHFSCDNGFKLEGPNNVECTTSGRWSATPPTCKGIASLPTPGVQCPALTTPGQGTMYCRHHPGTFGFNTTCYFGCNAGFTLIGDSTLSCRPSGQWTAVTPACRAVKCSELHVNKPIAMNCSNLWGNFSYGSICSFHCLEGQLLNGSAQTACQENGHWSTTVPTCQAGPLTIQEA
Method: as §1, §2

[3] = target: T3, human Fc E selectin (R&D catalog number 724 ES 100) (human, UniProt P16581 22-556)
T3 construct: Bought; coated in the flow chamber at 4 µg/mL; also called Human E selectin; human E-selectin; Fc part of the bought chimera not given
T3 sequence (looked up): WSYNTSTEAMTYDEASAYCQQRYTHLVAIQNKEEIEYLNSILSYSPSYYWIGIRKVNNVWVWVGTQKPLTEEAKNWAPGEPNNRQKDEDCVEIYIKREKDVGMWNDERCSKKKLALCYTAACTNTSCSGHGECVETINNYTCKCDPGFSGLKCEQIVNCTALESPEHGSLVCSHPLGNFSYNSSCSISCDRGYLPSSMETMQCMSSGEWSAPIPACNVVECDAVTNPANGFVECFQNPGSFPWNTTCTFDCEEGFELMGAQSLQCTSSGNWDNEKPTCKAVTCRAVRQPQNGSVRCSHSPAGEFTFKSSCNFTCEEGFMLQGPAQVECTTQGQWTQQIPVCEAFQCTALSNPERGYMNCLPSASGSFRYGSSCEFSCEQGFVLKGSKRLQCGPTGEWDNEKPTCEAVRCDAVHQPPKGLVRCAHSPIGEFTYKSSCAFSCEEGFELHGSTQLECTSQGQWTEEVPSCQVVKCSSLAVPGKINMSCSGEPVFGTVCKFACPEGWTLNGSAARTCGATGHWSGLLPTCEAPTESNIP
Method: as §1, §2

Measured: binding result

B1: microbubble Variant 1A (gas-filled microvesicles carrying the DSPE-PEG-SH/Variant 1A-SMCC conjugate) (other)
chain: QATEYEYLDYDFLPETEPPEMLRNSTDTTPLTGPGTPESTTVEPAARPHTCPPCPLQQRRGLEAERARLAAQLDALRAEVARLARERDLYGGGGAGGGGKG
modifications: as Variant 1A (pyroglutamate N-terminus, sulfated Tyr 5, 7, 10, O-glycan on Thr16); reacted with Sulfo-SMCC and linked to DSPE-PEG2000-SH, held in the phospholipid envelope of the microvesicle
notes: many copies of the ligand on each microvesicle, so the read-out is multivalent adhesion; also called MB-PSGL-1 Variant 1A; microvesicles with Variant 1A
binds: [1] | [2] | [3]
